Assay results taken from patent US20240376208A1 (AFFIMED, published 2024).
Where two headings read alike, the source gives them in different places.

What was measured:
Assay in all cases: cell-based or functional assay
[1] = biological target: T1, EGFR on tumor target cells (MCF-7, Daudi, DK-MG, HCT-116) (UniProt P00533 25-1210, limits assumed)
[2] = biological target: T1, EGFR on tumor target cells (MCF-7, …); remark: listed apart in the source
[3] = biological target: CD16A on primary human NK cells (human, UniProt P08637 17-254)
[4] = biological target: T1, EGFR on tumor target cells (MCF-7, …); remark: listed apart in the source

CD16A on primary human NK cells, sequence (P08637 17-254 limits assumed): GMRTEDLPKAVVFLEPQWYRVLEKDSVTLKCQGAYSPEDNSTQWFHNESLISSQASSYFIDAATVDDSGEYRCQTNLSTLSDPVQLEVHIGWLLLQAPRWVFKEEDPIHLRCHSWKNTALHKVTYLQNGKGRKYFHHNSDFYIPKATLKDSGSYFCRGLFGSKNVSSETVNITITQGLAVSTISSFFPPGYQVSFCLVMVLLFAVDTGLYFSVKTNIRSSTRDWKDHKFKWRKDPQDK

Row | Binder | Emax [%], 4 h calcein-release cytotoxicity on Daudi target cells, NK cells E:T 5:1 [1] [%] | EC50 [pM], 4 h calcein-release cytotoxicity on MCF-7 target cells, NK cells E:T 5:1 [2] [pM] | Emax [%], 4 h calcein-release cytotoxicity on MCF-7 target cells, NK cells E:T 5:1 [2] [%] | EC50 [pM], 4 h calcein-release NK cell fratricide assay, E:T 1:1 [3] [pM] | Emax [%], 4 h calcein-release NK cell fratricide assay, E:T 1:1 [3] [%] | EC50 [pM], 4 h calcein-release cytotoxicity on Daudi target cells, NK cells E:T 5:1 [4] [pM] | Emax [%], 4 h calcein-release cytotoxicity on Daudi target cells, NK cells E:T 5:1 [4] [%]
1 | scFv-Fc-scDb_04 (bispecific antibody) QVQLQESGPGLVKPSETLSLTCTVSGGSVSSGSYYWSWIRQPPGKGLEWIGYIYYSGSTNYNPSLKSRVTISVDTSKNQFSLKLSSVTAADTAVYYCARNPISIPAFDIWGQGTMVTVSSGGSGGSGGSGGSGGSGGSQPVLTQPPSVSVAPGKTARITCGGNNIGSKSVHWYQQKPGQAPVLVIYYDSDRPSGIPERFSGSNSGNTATLTISRVEAGDEADYYCQVWDTSSDHVLFGGGTKLTVLGGGGSDKTHTCPPCPAPEFEGGPSVFLFPPKPKDTLMISRTPEVTCVVVAVSHEDPEVKFNWYVDGVEVHNAKTKPREEQYGSTYRVVSVLTVLHQDWLNGKEYKCKVSNKALPAPIEKTISKAKGQPREPQVYTLPPSREEMTKNQVSLTCLVKGFYPSDIAVEWESNGQPENNYKTTPPVLDSDGSFFLYSKLTVDKSRWQQGNVFSCSVMHEALHNHYTQKSLSLSPGGGGGSGGGGSSYELTQPLSVSVALGQTARITCGGHNIGSKNVHWYQQKPGQAPVLVIYQDNKRPSGIPERFSGSNSGNTATLTISRAQAGDEADYYCQVWDNYNVLFGCGTKLTVLGGSGGSQVQLVQSGAEVKKPGASVKVSCKASGYTFTSYYMHWVRQAPGQCLEWMGAIEPTYGSTSYAQKFQGRVTMTRDTSTSTVYMELSSLRSEDTAVYYCARGSAYYYDFADYWGQGTLVTVSSGGSGGSGGSGGSGGSGGSSYELTQPLSVSVALGQTARITCGGHNIGSKNVHWYQQKPGQAPVLVIYQDNKRPSGIPERFSGSNSGNTATLTISRAQAGDEADYYCQVWDNYNVLFGCGTKLTVLGGSGGSQVQLVQSGAEVKKPGASVKVSCKASGYTFTSYYMHWVRQAPGQCLEWMGAIEPTYGSTSYAQKFQGRVTMTRDTSTSTVYMELSSLRSEDTAVYYCARGSAYYYDFADYWGQGTLVTVSS | 22.6 |  |  |  |  |  | 
2 | scFv-IgAb_43 (bispecific antibody) heavy: QVQLQESGPGLVKPSETLSLTCTVSGGSVSSGSYYWSWIRQPPGKGLEWIGYIYYSGSTNYNPSLKSRVTISVDTSKNQFSLKLSSVTAADTAVYYCARNPISIPAFDIWGQGTMVTVSSASTKGPSVFPLAPSSKSTSGGTAALGCLVKDYFPEPVTVSWNSGALTSGVHTFPAVLQSSGLYSLSSVVTVPSSSLGTQTYICNVNHKPSNTKVDKKVEPKSCDKTHTCPPCPAPEFEGGPSVFLFPPKPKDTLMISRTPEVTCVVVAVSHEDPEVKFNWYVDGVEVHNAKTKPREEQYNSTYRVVSVLTVLHQDWLNGKEYKCKVSNKALPAPIEKTISKAKGQPREPQVYTLPPSREEMTKNQVSLTCLVKGFYPSDIAVEWESNGQPENNYKTTPPVLDSDGSFFLYSKLTVDKSRWQQGNVFSCSVMHEALHNHYTQKSLSLSPGGGGGSGGGGSGGGGSGGGGSGGGGSGGGGSSYVLTQPSSVSVAPGQTATISCGGHNIGSKNVHWYQQRPGQSPVLVIYQDNKRPSGIPERFSGSNSGNTATLTISGTQAMDEADYYCQVWDNYSVLFGGGTKLTVLGGSGGSGGSGGSGGSGGSGGSQVQLVQSGAEVKKPGESLKVSCKASGYTFTSYYMHWVRQAPGQGLEWMGAIEPMYGSTSYAQKFQGRVTMTRDTSTSTVYMELSSLRSEDTAVYYCARGSAYYYDFADYWGQGTLVTVSS light: QPVLTQPPSVSVAPGKTARITCGGNNIGSKSVHWYQQKPGQAPVLVIYYDSDRPSGIPERFSGSNSGNTATLTISRVEAGDEADYYCQVWDTSSDHVLFGGGTKLTVLGQPKAAPSVTLFPPSSEELQANKATLVCLISDFYPGAVTVAWKADSSPVKAGVETTTPSKQSNNKYAASSYLSLTPEQWKSHRSYSCQVTHEGSTVEKTVAPTECS | 9.3 | 9.2 | 16.2 | 3510 | 6.9 | 151 | 10
